Laboratory results taken from patent publication US20160347859A1 (KATHOLIEKE UNIVERSITEIT LEUVEN, published 2016).

Assays:
mouse TAFI = target: T1, mouse TAFI (mouse, UniProt Q9JHH6 22-422); assay: sandwich ELISA: plate coated with recombinant mouse PAI-1, diabody, mouse TAFI, HRP-conjugated MA-TCK32G12
T1 construct: also called Carboxypeptidase B2 (CPB2)
T1 sequence (looked up): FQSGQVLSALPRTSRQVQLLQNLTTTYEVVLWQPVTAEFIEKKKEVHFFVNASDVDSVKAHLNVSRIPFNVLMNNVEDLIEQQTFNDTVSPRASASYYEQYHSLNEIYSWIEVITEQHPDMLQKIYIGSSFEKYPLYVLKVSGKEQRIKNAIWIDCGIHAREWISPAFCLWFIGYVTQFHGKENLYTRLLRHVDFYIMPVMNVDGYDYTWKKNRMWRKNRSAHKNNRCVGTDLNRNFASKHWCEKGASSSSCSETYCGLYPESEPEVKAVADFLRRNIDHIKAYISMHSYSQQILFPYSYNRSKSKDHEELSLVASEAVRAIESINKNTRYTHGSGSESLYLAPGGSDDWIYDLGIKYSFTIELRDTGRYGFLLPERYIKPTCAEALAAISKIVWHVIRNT
Experimental: (§1) Db-TCK26D6x33H1F7 (0.8 mg/kg) was administered IV via tail vein injection in mice (n=6). Prior to the experiment, blood was withdrawn on 0.38% trisodium citrate (=pre-sample). Post injection, blood was withdrawn on 0.38% trisodium citrate at several time points: 5 min, 45 min, 3 hours, 6 hours and 24 hours. Diabody concentrations in corresponding plasma samples were determined by an ELISA based on the simultaneous binding of the diabody towards PAI-1 and TAFI. Wells of polystyrene microtiter plates were incubated with 200 μl recombinant mouse PAI-1 in PBS (pH 7.4; 4 μg/ml) for 72 hours at 4° C., emptied and treated for two hours with PBS supplemented with 1% (m/v) bovine serum albumin. After washing, serial two-fold dilutions (180 μl) of plasma samples were added to the wells and incubated overnight at 4° C. Then, the wells were washed and incubated with 170 μl mouse TAFI (0.1 μg/ml) for 2 hours at room temperature. Subsequently, plates were washed and 160 μl HRP-conjugated MA-TCK32G12 (directed against TAFI) was added to the wells followed by incubation for 2 hours at room temperature. All washing steps were performed with PBS containing Tween 80 (0.002%) and dilutions were made in PBS containing Tween 80 (0.002%) and bovine serum albumin (0.1% m/v). […] The absorbance was measured at 492 nm. […]

mouse PAI-1 = target: T2, mouse PAI-1 (mouse, UniProt P22777 23-402); assay: as above
T2 construct: also called recombinant mouse PAI-1
T2 sequence (looked up): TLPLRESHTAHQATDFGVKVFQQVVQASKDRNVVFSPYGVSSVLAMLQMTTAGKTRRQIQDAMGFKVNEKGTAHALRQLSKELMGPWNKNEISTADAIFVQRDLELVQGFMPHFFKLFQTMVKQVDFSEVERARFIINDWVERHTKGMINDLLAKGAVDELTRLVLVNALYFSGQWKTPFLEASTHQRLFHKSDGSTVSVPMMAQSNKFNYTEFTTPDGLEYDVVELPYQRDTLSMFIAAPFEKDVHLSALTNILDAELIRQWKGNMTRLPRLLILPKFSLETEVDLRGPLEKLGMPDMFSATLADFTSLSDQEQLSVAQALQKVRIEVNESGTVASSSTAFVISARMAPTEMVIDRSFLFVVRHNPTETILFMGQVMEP
Experimental: as §1

binding result (mouse TAFI): binds
binding result (mouse PAI-1): binds
B1: Db-TCK26D6x33H1F7 (bispecific antibody)
chain 1: QVQLQQSGPELVKPGASVKISCKASGYTFTDNNMDWAKQSHGKSLEWIGSIYSNNGGTIYNQKFKGKATLNVDTSSSTAYMELRSLTSEDTAVYYCAREMSDGPYWFFDVWGTGTTVTVSGAKTTPKLGGDIQMTQSPSSLSASLGDRVTISCRASQDISNFLDWYQQKPDGTVKLLIYYTSRLHSGVPSRFSGSGSGTDYSLTISKLEQEDIATYFCQQGNTFPPTFGGGTKLEIKRADAAAAGSEQKLISEEDLNSHHHHHH
chain 2: QVQLQQSGAEVVKPGASVKLACTASGFNIKDTYIHWVKQGPEQGLEWIGRIDPANGNTKYDSKFQDKATITADTSSNTAYLHLSSLTSEDTAVYYCVRGDYDYVYFDYWGQGTTVTVSSAKTTPKLGGDIQMTQSPASLSVSVGETVTITCRASENIFRNLVWYQQKQGKSPQLLVYSATNLVDGVPSRFSGSGSGTQYSLKINSLQSEDFGSYYCQHFWGTPRTFGGGTKLEIKRADTAPTGSEQKLISEEDLNSHHHHHH
notes: also called diabody
